Assay [1] addresses T1, complement component C3 (human, UniProt P01024 23-1663, limits assumed). The experiment in a line: cell-based or functional assay.
Assay [2] has as its target T1, complement component C3. The experiment in a line: cell-based or functional assay. This is another data set of the same source.
Assay [3] has as its target T1, complement component C3. The experiment in a line: cell-based or functional assay. The source holds these as a separate data set.
Assay [4] has as its target T1, complement component C3. The assay can be described thus: ITC; relative to the row 'Wild-type'. The protocol: Isothermal titration calorimetry experiments were performed using the Microcal VP-ITC calorimeter (Microcal Inc, Northampton, Mass.). Protein concentrations of 3.5-5 μM and peptide concentrations of 80-200 μM were used for these experiments. All titrations were performed in PBS (10 mM phosphate buffer with 150 mM NaCl, pH 7.4). In each experiment, the target protein, C3, was loaded into the cell, and peptide was loaded into the syringe. All experiments were performed at 25° C. and for each experiment, 2-μl peptide injections were made into the cell containing the protein. In each experiment, the raw isotherms were corrected for the heats of dilution by subtracting the isotherms representing peptide injections into the buffer. The resulting isotherms were fit to various models within the Origin 7.0 software, and the model that achieved the lowest chi square value was deemed to be appropriate for the respective dataset. Binding affinity and entropy values were plotted against log P values.
The calorimetric data obtained for the interaction of all the peptides with C3 fit to a one set of sites model with stoichiometry close to 1 (FIG. 4). […] As per the correlation, binding affinity increases with an increase in the hydrophobicity of the analog incorporated at position 4. This observation is consistent with the correlation shown between log P and the inhibitory constants.
A general note: ITC needs no label: the signal is the heat of the interaction.

Where two headings read alike, the source gives them in different places. Bridges are numbered along the chain shown (N, C = ends). [ ]: non-standard residue; d: D form. Trp(1-Me) = Cn1cc(C[C@H](N)C(=O)O)c2ccccc21; 2Nal = N[C@@H](Cc1ccc2ccccc2c1)C(=O)O

T1 sequence (P01024 23-1663 limits assumed): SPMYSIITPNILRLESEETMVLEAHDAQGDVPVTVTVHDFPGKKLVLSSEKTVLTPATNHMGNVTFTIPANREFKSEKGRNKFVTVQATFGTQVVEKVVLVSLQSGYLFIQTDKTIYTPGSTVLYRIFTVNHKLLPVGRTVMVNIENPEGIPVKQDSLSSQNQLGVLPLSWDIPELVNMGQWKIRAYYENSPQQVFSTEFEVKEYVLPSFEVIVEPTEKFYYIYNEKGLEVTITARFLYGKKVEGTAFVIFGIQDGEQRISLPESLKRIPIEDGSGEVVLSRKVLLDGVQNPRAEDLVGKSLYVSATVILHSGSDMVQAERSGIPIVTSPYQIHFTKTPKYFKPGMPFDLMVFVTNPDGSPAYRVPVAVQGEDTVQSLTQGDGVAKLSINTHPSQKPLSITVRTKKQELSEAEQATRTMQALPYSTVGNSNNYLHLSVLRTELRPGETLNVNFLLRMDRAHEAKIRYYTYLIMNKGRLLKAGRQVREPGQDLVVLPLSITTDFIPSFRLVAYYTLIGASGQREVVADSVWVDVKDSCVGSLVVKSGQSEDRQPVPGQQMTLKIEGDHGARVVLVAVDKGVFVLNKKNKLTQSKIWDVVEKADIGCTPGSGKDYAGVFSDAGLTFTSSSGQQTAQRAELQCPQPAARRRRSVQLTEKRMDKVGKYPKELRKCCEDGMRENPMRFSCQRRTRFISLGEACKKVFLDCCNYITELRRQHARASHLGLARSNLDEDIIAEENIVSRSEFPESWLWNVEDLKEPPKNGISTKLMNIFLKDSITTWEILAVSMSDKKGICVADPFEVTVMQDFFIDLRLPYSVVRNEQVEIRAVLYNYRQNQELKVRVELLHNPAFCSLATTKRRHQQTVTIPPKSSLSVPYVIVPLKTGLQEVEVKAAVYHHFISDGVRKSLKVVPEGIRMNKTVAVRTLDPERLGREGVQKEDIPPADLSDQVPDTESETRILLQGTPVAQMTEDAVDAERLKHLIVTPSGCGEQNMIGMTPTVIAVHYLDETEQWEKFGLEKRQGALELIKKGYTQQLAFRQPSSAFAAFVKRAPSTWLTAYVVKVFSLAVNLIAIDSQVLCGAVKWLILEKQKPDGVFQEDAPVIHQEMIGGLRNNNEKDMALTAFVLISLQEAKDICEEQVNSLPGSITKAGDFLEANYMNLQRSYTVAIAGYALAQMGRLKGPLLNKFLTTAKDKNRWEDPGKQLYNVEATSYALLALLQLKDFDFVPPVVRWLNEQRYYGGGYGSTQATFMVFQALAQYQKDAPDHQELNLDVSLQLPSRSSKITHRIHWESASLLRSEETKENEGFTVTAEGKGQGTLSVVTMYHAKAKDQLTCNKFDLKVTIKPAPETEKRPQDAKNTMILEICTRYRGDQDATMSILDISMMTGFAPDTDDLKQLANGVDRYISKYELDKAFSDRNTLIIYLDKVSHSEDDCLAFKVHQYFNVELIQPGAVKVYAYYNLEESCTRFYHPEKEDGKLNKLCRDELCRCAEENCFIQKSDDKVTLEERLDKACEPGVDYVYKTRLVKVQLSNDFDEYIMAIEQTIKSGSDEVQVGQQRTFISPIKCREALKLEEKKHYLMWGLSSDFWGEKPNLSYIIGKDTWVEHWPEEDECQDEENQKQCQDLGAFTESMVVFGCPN

In the assay with complement component C3 [1], Ac-V4W/7(5-methoxy W)/H9A (peptide) came in with an IC50, complement inhibition (C3b/iC3b deposition ELISA, human plasma) of 0.46 µM and a Relative activity (to compstatin, SEQ ID NO: 1) of 0.5 fold.
In the assay with complement component C3 [1], “G(-1)/V4(5-OH-W)/W7(5-OH-W)/H9A/N14 (peptide)” had an IC50, complement inhibition (C3b/iC3b deposition ELISA, human plasma) of 33 µM; a Relative activity (to compstatin, SEQ ID NO: 1) of 1.6 fold; a loss of complement inhibitory activity relative to Ac-V4W/H9A of 27.5 fold.
Take G(-1)/V4(5fW)/W7(5fW)/H9A/N14 (peptide): in the assay with complement component C3 [1], the Activity over compstatin was determined as 112 fold; the IC50, complement inhibition (C3b/iC3b deposition ELISA, human plasma) was 0.48 µM; the Relative activity (to compstatin, SEQ ID NO: 1) came out at 112 fold; the complement inhibitory activity relative to Ac-V4W/H9A was 2.5 fold.
In the assay with complement component C3 [1], G(-1)/V4(6fW)/W7(6fW)/H9A/N14 (peptide) showed an Activity over compstatin of 126 fold; an IC50, complement inhibition (C3b/iC3b deposition ELISA, human plasma) of 0.43 µM; a Relative activity (to compstatin, SEQ ID NO: 1) of 126 fold; a complement inhibitory activity relative to Ac-V4W/H9A of 2.8 fold.
In the assay with complement component C3 [1], “G(-1)/V4(7-aza-W)/W7(7-aza-W)/H9A/N14 (peptide)” showed an IC50, complement inhibition (C3b/iC3b deposition ELISA, human plasma) of 122 µM and a Relative activity (to compstatin, SEQ ID NO: 1) of 0.44 fold.
In the assay with complement component C3 [1], G(-1)/V4W/H9A/N14 (peptide) came in with an Activity over compstatin of 45 fold; an IC50, complement inhibition (C3b/iC3b deposition ELISA, human plasma) of 1.2 µM; a Relative activity (to compstatin, SEQ ID NO: 1) of 45 fold.

B1: 4(1MeW)-ABP (peptide)
peptide: Ac-ICV[Trp(1-Me)]QDWGAHRCTRLIEDICLPRWGCLWEDD-NH2
modifications: disulfide 2-12, 20-26
Consider B1, for which the “amount needed for the same complement inhibition as Ac-V4(1-methyl-W)/H9A” value in the assay with complement component C3 [2] amounted to 7 fold.

B2: Ac-V4(2-Nal)/H9A (peptide)
peptide: Ac-ICV[2Nal]QDWGAHRCT-NH2
modifications: disulfide 2-12
SMILES: CC[C@H](C)[C@H](NC(C)=O)C(=O)N[C@H]1CSSC[C@@H](C(=O)N[C@H](C(N)=O)[C@@H](C)O)NC(=O)[C@H](CCCNC(=N)N)NC(=O)[C@H](Cc2c[nH]cn2)NC(=O)[C@H](C)NC(=O)CNC(=O)[C@H](Cc2c[nH]c3ccccc23)NC(=O)[C@H](CC(=O)O)NC(=O)[C@H](CCC(N)=O)NC(=O)[C@H](Cc2ccc3ccccc3c2)NC(=O)[C@H](C(C)C)NC1=O
notes: also called Ac-V4(2-Nal)/W7/H9A
As for B2, the “IC50, complement inhibition (C3b/iC3b deposition ELISA, human plasma)” value in the assay with complement component C3 [3] came out at 0.545 µM. Besides, in the assay with complement component C3 [4], the “-TΔΔS” value is -3.99 kcal/mol, the ΔΔG is -0.1 kcal/mol and the ΔΔH worked out at 3.87 kcal/mol.

B3: Ac-V4(1-methyl-W)/H9A-K-PEG 5000 (peptide)
peptide: ICVWQDWGAHRCTK
modifications: N-terminal acetyl; 1-methyltryptophan at position 4; lysine added at the C-terminus with PEG 5000 linked to its side chain
With B3, the “amount needed for the same complement inhibition as Ac-V4(1-methyl-W)/H9A” value with complement component C3 [2] is 7 fold.

Values taken from US20160096866A1 (University of Pennsylvania, published 2016).
